Data as given in the Human Domainome abundance scans (Beltran et al. 2025).
± gives the uncertainty stated by the source.

B1: Transcription factor SOX-11, residues 50 to 117; numbered along this chain, P35716 (parent)
chain: KRPMNAFMVWSKIERRKIMEQSPDMHNAEISKRLGKRWKMLKDSEKIPFIREAERLRLKHMADYPDYK

Variants of: B1
Experiment: abundance fitness (aPCA) (normalised: wild type 0, dead -1); higher = more abundant; growth selection in yeast, the domain comes from the species named
Settings: Homo sapiens

Q: For K42V, which abundance fitness is on record?
A: -0.431 ± 0.055

Q: For K42Y, which abundance fitness is on record?
A: -0.525 ± 0.077

Q: Which abundance fitness does the source give for E14N here?
A: -0.338 ± 0.089

Q: Which abundance fitness does the source give for E14L here?
A: -1.05 ± 0.14

Q: Which abundance fitness does the source give for E14P here?
A: -0.739 ± 0.22

Q: Which abundance fitness does the source give for E14S here?
A: -0.488 ± 0.067

Q: Which abundance fitness does the source give for A6R here?
A: -0.776 ± 0.17

Q: With A6M as the variant, how does the abundance fitness read?
A: -0.831 ± 0.24

Q: Which abundance fitness does the source give for A6N here?
A: -0.976 ± 0.11

Q: Which abundance fitness does the source give for A6Y here?
A: -0.827 ± 0.096

Q: For S44W, which abundance fitness is on record?
A: -0.037 ± 0.13

Q: Which abundance fitness does the source give for S44H here?
A: -0.053 ± 0.084

Q: For S44I, which abundance fitness is on record?
A: 0.005 ± 0.065

Q: For R16H, which abundance fitness is on record?
A: -0.001 ± 0.069

Q: For R16W, which abundance fitness is on record?
A: -0.956 ± 0.4

Q: For K39C, which abundance fitness is on record?
A: -0.452 ± 0.071

Q: For K39V, which abundance fitness is on record?
A: -0.395 ± 0.062

Q: For K39D, which abundance fitness is on record?
A: 0.008 ± 0.061

Q: Which abundance fitness does the source give for S11G here?
A: -0.283 ± 0.12

Q: With S11L as the variant, how does the abundance fitness read?
A: -0.857 ± 0.18

Q: For S11Y, which abundance fitness is on record?
A: -0.267 ± 0.098

Q: For S11N, which abundance fitness is on record?
A: -0.399 ± 0.14

Q: For E54C, which abundance fitness is on record?
A: -0.42 ± 0.089

Q: With E54A as the variant, how does the abundance fitness read?
A: -0.425 ± 0.072

Q: For E54M, which abundance fitness is on record?
A: -0.833 ± 0.34

Q: Which abundance fitness does the source give for M61K here?
A: -0.205 ± 0.18

Q: For M61W, which abundance fitness is on record?
A: -0.221 ± 0.16

Q: Which abundance fitness does the source give for M61A here?
A: 0.144 ± 0.065

Q: For M61T, which abundance fitness is on record?
A: 0.058 ± 0.06

Q: Which abundance fitness does the source give for I50A here?
A: -0.287 ± 0.074

Q: For I50G, which abundance fitness is on record?
A: -0.555 ± 0.071

Q: Which abundance fitness does the source give for I47N here?
A: -0.529 ± 0.05

Q: Which abundance fitness does the source give for I47D here?
A: -0.107 ± 0.045

Q: For I47T, which abundance fitness is on record?
A: -0.051 ± 0.057

Q: For I47E, which abundance fitness is on record?
A: 0.259 ± 0.067

Q: With I47M as the variant, how does the abundance fitness read?
A: 0.101 ± 0.072

Q: For R57T, which abundance fitness is on record?
A: -0.023 ± 0.07

Q: With R57F as the variant, how does the abundance fitness read?
A: -0.432 ± 0.054

Q: With R57D as the variant, how does the abundance fitness read?
A: -0.137 ± 0.073

Q: With R57K as the variant, how does the abundance fitness read?
A: 0.137 ± 0.11

Q: With V9S as the variant, how does the abundance fitness read?
A: -0.847 ± 0.079

Q: For M8F, which abundance fitness is on record?
A: -0.14 ± 0.051

Q: For M8G, which abundance fitness is on record?
A: -0.079 ± 0.067

Q: For M8V, which abundance fitness is on record?
A: -0.131 ± 0.062

Q: With M8E as the variant, how does the abundance fitness read?
A: 0.299 ± 0.15

Q: For M4E, which abundance fitness is on record?
A: -0.004 ± 0.18

Q: Which abundance fitness does the source give for M4F here?
A: -0.186 ± 0.053

Q: For M4T, which abundance fitness is on record?
A: -0.145 ± 0.079

Q: With M4N as the variant, how does the abundance fitness read?
A: -0.292 ± 0.058

Q: Which abundance fitness does the source give for M4Q here?
A: -0.248 ± 0.15

Q: Which abundance fitness does the source give for D24H here?
A: -0.26 ± 0.079

Q: For D24G, which abundance fitness is on record?
A: -0.105 ± 0.057

Q: With D24R as the variant, how does the abundance fitness read?
A: -0.456 ± 0.091

Q: For M25R, which abundance fitness is on record?
A: -0.546 ± 0.078

Q: With M25D as the variant, how does the abundance fitness read?
A: -0.717 ± 0.11

Q: For M25Q, which abundance fitness is on record?
A: -0.782 ± 0.21

Q: With M25P as the variant, how does the abundance fitness read?
A: -0.892 ± 0.21

Q: Which abundance fitness does the source give for M25K here?
A: -0.608 ± 0.18

Q: With L56I as the variant, how does the abundance fitness read?
A: -0.176 ± 0.058

Q: With L56F as the variant, how does the abundance fitness read?
A: -0.377 ± 0.056

Q: For L56M, which abundance fitness is on record?
A: 0.079 ± 0.16

Q: Which abundance fitness does the source give for L56D here?
A: -0.247 ± 0.069

Q: With N5C as the variant, how does the abundance fitness read?
A: -0.321 ± 0.064

Q: For N5P, which abundance fitness is on record?
A: -0.544 ± 0.089

Q: Which abundance fitness does the source give for N5T here?
A: 0.149 ± 0.056

Q: For K59N, which abundance fitness is on record?
A: 0.026 ± 0.053

Q: With K59P as the variant, how does the abundance fitness read?
A: -0.403 ± 0.089

Q: Which abundance fitness does the source give for K59S here?
A: -0.017 ± 0.044

Q: Which abundance fitness does the source give for K59T here?
A: 0.075 ± 0.069

Q: With K59Y as the variant, how does the abundance fitness read?
A: -0.192 ± 0.056

Q: With K59V as the variant, how does the abundance fitness read?
A: 0.012 ± 0.051

Q: With K68T as the variant, how does the abundance fitness read?
A: -0.139 ± 0.37

Q: With K68Y as the variant, how does the abundance fitness read?
A: 0.314 ± 0.24

Q: For Y67D, which abundance fitness is on record?
A: 0.283 ± 0.056

Q: Which abundance fitness does the source give for P3L here?
A: -0.118 ± 0.085

Q: For P3A, which abundance fitness is on record?
A: -0.544 ± 0.096

Q: Which abundance fitness does the source give for P3D here?
A: 0.525 ± 0.076

Q: Which abundance fitness does the source give for L34C here?
A: -0.522 ± 0.072

Q: Which abundance fitness does the source give for E45N here?
A: -0.439 ± 0.088

Q: For P23A, which abundance fitness is on record?
A: -0.391 ± 0.079

Q: With P23D as the variant, how does the abundance fitness read?
A: -0.739 ± 0.093

Q: With P23V as the variant, how does the abundance fitness read?
A: -0.598 ± 0.07

Q: Which abundance fitness does the source give for P23L here?
A: -0.287 ± 0.068

Q: For G35W, which abundance fitness is on record?
A: -0.207 ± 0.11

Q: For G35K, which abundance fitness is on record?
A: 0.484 ± 0.12

Q: With L41V as the variant, how does the abundance fitness read?
A: -0.53 ± 0.068

Q: With L41S as the variant, how does the abundance fitness read?
A: -0.604 ± 0.061

Q: For L41N, which abundance fitness is on record?
A: -0.849 ± 0.11

Q: Which abundance fitness does the source give for W38M here?
A: -0.717 ± 0.23

Q: For W38L, which abundance fitness is on record?
A: -0.994 ± 0.12

Q: Which abundance fitness does the source give for W10D here?
A: -0.781 ± 0.14

Q: Which abundance fitness does the source give for W10T here?
A: -0.576 ± 0.097

Q: For W10P, which abundance fitness is on record?
A: -0.589 ± 0.13

Q: Which abundance fitness does the source give for M40T here?
A: -0.05 ± 0.075

Q: For M40Q, which abundance fitness is on record?
A: 0.361 ± 0.14

Q: With R37Q as the variant, how does the abundance fitness read?
A: 0.073 ± 0.14

Q: With R37N as the variant, how does the abundance fitness read?
A: 0.001 ± 0.051

Q: With H26F as the variant, how does the abundance fitness read?
A: -0.497 ± 0.062

Q: For H26L, which abundance fitness is on record?
A: -0.146 ± 0.054

Q: Which abundance fitness does the source give for H26D here?
A: 0.414 ± 0.055

Q: Which abundance fitness does the source give for K32F here?
A: -0.329 ± 0.063

Q: With K32D as the variant, how does the abundance fitness read?
A: 0.047 ± 0.059

Q: For K32G, which abundance fitness is on record?
A: -0.245 ± 0.063

Q: Which abundance fitness does the source give for S31M here?
A: -0.333 ± 0.14

Q: Which abundance fitness does the source give for S31W here?
A: -0.3 ± 0.12

Q: For S31R, which abundance fitness is on record?
A: -0.311 ± 0.082

Q: Which abundance fitness does the source give for E20T here?
A: -0.185 ± 0.13

Q: With P48G as the variant, how does the abundance fitness read?
A: -0.384 ± 0.098

Q: For P48D, which abundance fitness is on record?
A: -0.656 ± 0.12

Q: For P48E, which abundance fitness is on record?
A: -0.386 ± 0.22

Q: For P48H, which abundance fitness is on record?
A: -0.355 ± 0.075

Q: With P48Q as the variant, how does the abundance fitness read?
A: -0.24 ± 0.16

Q: For P48I, which abundance fitness is on record?
A: -0.43 ± 0.089

Q: For K17G, which abundance fitness is on record?
A: -0.756 ± 0.1

Q: Which abundance fitness does the source give for N27S here?
A: 0.07 ± 0.049

Q: For N27Y, which abundance fitness is on record?
A: -0.213 ± 0.063

Q: For N27H, which abundance fitness is on record?
A: 0.139 ± 0.054

Q: For N27C, which abundance fitness is on record?
A: -0.08 ± 0.055
